According to US20220010021A1 (Sanofi, published 2022):
Substitutions are numbered along the chain they refer to.

B1: Ab0331 (antibody, human IgG4 S228P, lambda)
heavy: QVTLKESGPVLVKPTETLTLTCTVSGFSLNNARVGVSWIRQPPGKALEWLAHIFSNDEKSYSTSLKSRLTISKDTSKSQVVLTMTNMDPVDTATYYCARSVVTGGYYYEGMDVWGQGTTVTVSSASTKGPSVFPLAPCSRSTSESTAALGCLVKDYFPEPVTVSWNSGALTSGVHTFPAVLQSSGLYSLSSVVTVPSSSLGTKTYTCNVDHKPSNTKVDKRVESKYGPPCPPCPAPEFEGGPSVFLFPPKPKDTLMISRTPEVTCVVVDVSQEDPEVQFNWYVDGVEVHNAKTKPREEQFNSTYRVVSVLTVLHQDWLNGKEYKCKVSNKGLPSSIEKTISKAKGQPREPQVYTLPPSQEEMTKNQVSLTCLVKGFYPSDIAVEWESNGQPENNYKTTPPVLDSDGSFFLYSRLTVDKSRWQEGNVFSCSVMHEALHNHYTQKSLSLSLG
light: SYVLTQPPSVSVAPGQTARITCGGSNIGSESVHWYQQKPGQAPVLVVYSESDRPSGIPERFSGSNSGNTATLTISRVEAGDEADYYCQVWEGESDHVVFGGGTKLTVLGQPKANPTVTLFPPSSEELQANKATLVCLISDFYPGAVTVAWKADGSPVKAGVETTKPSKQSNNKYAASSYLSLTPEQWKSHRSYSCQVTHEGSTVEKTVAPTECS
B2: Ab0335 (antibody, human IgG4 S228P, lambda)
heavy: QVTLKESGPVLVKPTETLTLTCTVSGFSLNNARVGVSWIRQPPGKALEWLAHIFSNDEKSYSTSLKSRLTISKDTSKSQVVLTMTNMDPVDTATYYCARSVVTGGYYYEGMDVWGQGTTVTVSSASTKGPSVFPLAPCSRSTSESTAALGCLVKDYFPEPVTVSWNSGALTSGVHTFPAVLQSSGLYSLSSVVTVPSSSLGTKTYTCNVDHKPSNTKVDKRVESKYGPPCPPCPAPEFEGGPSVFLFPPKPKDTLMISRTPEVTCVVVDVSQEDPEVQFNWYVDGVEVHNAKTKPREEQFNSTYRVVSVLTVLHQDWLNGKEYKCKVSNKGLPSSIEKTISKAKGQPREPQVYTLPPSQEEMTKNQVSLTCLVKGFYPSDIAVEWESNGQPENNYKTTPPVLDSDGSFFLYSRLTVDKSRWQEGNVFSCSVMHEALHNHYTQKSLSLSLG
light: B1 light with E50A
B3: Ab0351 (antibody, human IgG4 S228P, lambda)
heavy: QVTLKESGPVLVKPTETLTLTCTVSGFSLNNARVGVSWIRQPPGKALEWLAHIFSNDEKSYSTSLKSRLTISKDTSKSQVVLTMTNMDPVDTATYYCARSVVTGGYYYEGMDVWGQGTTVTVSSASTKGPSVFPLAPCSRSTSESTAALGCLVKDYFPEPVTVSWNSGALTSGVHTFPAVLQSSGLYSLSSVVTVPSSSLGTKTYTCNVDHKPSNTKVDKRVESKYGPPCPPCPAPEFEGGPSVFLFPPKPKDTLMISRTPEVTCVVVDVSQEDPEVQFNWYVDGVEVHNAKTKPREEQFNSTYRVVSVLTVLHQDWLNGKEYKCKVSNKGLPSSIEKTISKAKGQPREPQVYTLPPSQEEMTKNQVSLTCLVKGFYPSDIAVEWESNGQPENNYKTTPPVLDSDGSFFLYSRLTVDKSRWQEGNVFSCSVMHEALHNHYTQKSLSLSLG
light: B1 light with S49E
B4: Ab0305 (antibody, IgG4, V domains shown)
VH: QVTLKESGPVLVKPTETLTLTCTVSGFSLNNARVGVSWIRQPPGKALEWLAHIFSNDEKSYSTSLKSRLTISKDTSKSQVVLTMTNMDPVDTATYYCARSVVTGGYYYEGMDVWGQGTTVTVSS
VL: SYVLTQPPSVSVAPGQTARITCGGSNIGSESVHWYQQKPGQAPVLVVYYESDRPSGIPERFSGSNSGNTATLTISRVEAGDEADYYCQVWTGNSDHVVFGGGTKLTVLG
B5: Ab0329 (antibody, IgG4, V domains shown)
VH: B4 VH
VL: B4 VL with E50S, T91A, N93S
B6: Ab0315 (antibody, IgG4, V domains shown)
VH: B4 VH
VL: B4 VL with S25N, E50D, N93E
B7: Ab0319 (antibody, IgG4, V domains shown)
VH: B4 VH
VL: B4 VL with S25N, N93E
B8: Ab0320 (antibody, IgG4, V domains shown)
VH: B4 VH
VL: B4 VL with N93E
B9: Ab0328 (antibody, IgG4, V domains shown)
VH: B4 VH
VL: B4 VL with E50A, T91A, N93S
B10: Ab0316 (antibody, IgG4, V domains shown)
VH: B4 VH
VL: B4 VL with E50D, N93E
B11: Ab0395 (antibody, IgG4, V domains shown)
VH: B4 VH with F54W
VL: SYVLTQPPSVSVAPGQTARITCGGNNIGSESVHWYQQKPGQAPVLVVDDSDRPSGIPERFSGSNSGNTATLTISRVEAGDEADYYCQVFDGNSAHVVFGGGTKLTVLG
B12: Ab0318 (antibody, IgG4, V domains shown)
VH: B4 VH
VL: B4 VL with Y49D, N93E
B13: Ab0317 (antibody, IgG4, V domains shown)
VH: B4 VH
VL: B4 VL with S25N, Y49D, N93E
B14: Ab0383 (antibody, IgG4, V domains shown)
VH: B4 VH with H52W
VL: B11 VL with A94V
B15: Ab0394 (antibody, IgG4, V domains shown)
VH: B4 VH with H52W
VL: B11 VL with S1C, S93C, A94S
B16: Ab0376 (antibody, IgG4, V domains shown)
VH: B4 VH with F54W
VL: B11 VL with S93C, A94E, H95C
B17: Ab0406 (antibody, IgG4, V domains shown)
VH: B4 VH with H52S, F54W
VL: B11 VL with S1C, S93C, A94T
B18: Ab0382 (antibody, IgG4, V domains shown)
VH: B4 VH with H52S, F54W
VL: B11 VL with S93C, A94V, H95C
B19: Ab0371 (antibody, IgG4, V domains shown)
VH: B4 VH with H52W
VL: B11 VL with F89H, A94E
B20: Ab0402 (antibody, IgG4, V domains shown)
VH: B4 VH with H52W
VL: B11 VL with S93C, H95C
B21: Ab0372 (antibody, IgG4, V domains shown)
VH: B4 VH with H52W
VL: B11 VL with S1C, F89H, S93C, A94E
B22: Ab0397 (antibody, IgG4, V domains shown)
VH: B4 VH with F54W
VL: B11 VL with S1C, S93C
B23: Ab0390 (antibody, IgG4, V domains shown)
VH: B4 VH with F54W
VL: B11 VL with S93C, A94S, H95C
B24: Ab0404 (antibody, IgG4, V domains shown)
VH: B4 VH with F54W
VL: B11 VL with A94T
B25: Ab0396 (antibody, IgG4, V domains shown)
VH: B4 VH with H52S, F54W
VL: B11 VL
B26: Ab0403 (antibody, IgG4, V domains shown)
VH: B4 VH with H52W
VL: B11 VL with S1C, S93C
B27: Ab0392 (antibody, IgG4, V domains shown)
VH: B4 VH with H52W
VL: B11 VL with A94S
B28: Ab0379 (antibody, IgG4, V domains shown)
VH: B4 VH with F54W
VL: B11 VL with S1C, S93C, A94V
B29: Ab0381 (antibody, IgG4, V domains shown)
VH: B4 VH with F54W
VL: B11 VL with S93C, A94V, H95C
B30: Ab0393 (antibody, IgG4, V domains shown)
VH: B4 VH with H52W
VL: B11 VL with S93C, A94S, H95C
B31: Ab0408 (antibody, IgG4, V domains shown)
VH: B4 VH with H52W
VL: B11 VL with A94T
B32: Ab0400 (antibody, IgG4, V domains shown)
VH: B4 VH with H52S, F54W
VL: B11 VL with S93C, H95C
B33: Ab0401 (antibody, IgG4, V domains shown)
VH: B4 VH with H52W
VL: B11 VL
B34: Ab0375 (antibody, IgG4, V domains shown)
VH: B4 VH with F54W
VL: B11 VL with S1C, S93C, A94E
B35: Ab0380 (antibody, IgG4, V domains shown)
VH: B4 VH with H52S, F54W
VL: B11 VL with S1C, S93C, A94V
B36: Ab0391 (antibody, IgG4, V domains shown)
VH: B4 VH with H52S, F54W
VL: B11 VL with S93C, A94S, H95C
B37: Ab0410 (antibody, IgG4, V domains shown)
VH: B4 VH
VL: B11 VL with F89Y, A94S
B38: Ab0377 (antibody, IgG4, V domains shown)
VH: B4 VH with F54W
VL: B11 VL with A94V
B39: Ab0374 (antibody, IgG4, V domains shown)
VH: B4 VH with F54W
VL: B11 VL with A94E
B40: Ab0398 (antibody, IgG4, V domains shown)
VH: B4 VH with H52S, F54W
VL: B11 VL with S1C, S93C
B41: Ab0378 (antibody, IgG4, V domains shown)
VH: B4 VH with H52S, F54W
VL: B11 VL with A94V
B42: Ab0405 (antibody, IgG4, V domains shown)
VH: B4 VH with H52S, F54W
VL: B11 VL with A94T
B43: Ab0389 (antibody, IgG4, V domains shown)
VH: B4 VH with H52S, F54W
VL: B11 VL with S1C, S93C, A94S
B44: Ab0399 (antibody, IgG4, V domains shown)
VH: B4 VH with F54W
VL: B11 VL with S93C, H95C
B45: Ab0373 (antibody, IgG4, V domains shown)
VH: B4 VH with H52W
VL: B11 VL with F89H, S93C, A94E, H95C

Target: human FGFR1c + KLB receptor complex on HEK293 iLite FGF21 reporter cells (human, UniProt P11362 22-822; Q86Z14 1-1044)
Sequence (P11362 22-822, chain 1 of 2): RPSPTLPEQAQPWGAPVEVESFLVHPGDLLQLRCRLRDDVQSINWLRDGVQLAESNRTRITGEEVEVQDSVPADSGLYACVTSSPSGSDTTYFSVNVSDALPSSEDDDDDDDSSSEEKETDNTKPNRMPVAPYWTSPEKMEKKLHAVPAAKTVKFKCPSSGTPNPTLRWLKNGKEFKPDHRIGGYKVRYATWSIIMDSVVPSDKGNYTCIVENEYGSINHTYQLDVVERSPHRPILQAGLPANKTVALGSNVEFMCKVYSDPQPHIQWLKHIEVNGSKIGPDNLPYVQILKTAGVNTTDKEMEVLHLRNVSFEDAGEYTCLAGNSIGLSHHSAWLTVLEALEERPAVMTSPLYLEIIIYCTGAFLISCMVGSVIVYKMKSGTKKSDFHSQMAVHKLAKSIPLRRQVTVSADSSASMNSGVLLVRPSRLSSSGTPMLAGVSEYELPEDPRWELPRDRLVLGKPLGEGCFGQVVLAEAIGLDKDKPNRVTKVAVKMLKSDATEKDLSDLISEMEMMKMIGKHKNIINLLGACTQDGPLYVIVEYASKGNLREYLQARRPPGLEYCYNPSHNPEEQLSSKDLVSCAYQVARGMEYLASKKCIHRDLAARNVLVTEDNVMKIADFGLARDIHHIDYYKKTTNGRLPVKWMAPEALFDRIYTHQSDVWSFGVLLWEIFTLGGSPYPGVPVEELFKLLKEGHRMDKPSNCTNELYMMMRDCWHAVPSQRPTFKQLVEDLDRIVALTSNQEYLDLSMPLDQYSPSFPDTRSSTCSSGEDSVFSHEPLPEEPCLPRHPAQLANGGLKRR
Sequence (Q86Z14 whole entry, chain 2 of 2): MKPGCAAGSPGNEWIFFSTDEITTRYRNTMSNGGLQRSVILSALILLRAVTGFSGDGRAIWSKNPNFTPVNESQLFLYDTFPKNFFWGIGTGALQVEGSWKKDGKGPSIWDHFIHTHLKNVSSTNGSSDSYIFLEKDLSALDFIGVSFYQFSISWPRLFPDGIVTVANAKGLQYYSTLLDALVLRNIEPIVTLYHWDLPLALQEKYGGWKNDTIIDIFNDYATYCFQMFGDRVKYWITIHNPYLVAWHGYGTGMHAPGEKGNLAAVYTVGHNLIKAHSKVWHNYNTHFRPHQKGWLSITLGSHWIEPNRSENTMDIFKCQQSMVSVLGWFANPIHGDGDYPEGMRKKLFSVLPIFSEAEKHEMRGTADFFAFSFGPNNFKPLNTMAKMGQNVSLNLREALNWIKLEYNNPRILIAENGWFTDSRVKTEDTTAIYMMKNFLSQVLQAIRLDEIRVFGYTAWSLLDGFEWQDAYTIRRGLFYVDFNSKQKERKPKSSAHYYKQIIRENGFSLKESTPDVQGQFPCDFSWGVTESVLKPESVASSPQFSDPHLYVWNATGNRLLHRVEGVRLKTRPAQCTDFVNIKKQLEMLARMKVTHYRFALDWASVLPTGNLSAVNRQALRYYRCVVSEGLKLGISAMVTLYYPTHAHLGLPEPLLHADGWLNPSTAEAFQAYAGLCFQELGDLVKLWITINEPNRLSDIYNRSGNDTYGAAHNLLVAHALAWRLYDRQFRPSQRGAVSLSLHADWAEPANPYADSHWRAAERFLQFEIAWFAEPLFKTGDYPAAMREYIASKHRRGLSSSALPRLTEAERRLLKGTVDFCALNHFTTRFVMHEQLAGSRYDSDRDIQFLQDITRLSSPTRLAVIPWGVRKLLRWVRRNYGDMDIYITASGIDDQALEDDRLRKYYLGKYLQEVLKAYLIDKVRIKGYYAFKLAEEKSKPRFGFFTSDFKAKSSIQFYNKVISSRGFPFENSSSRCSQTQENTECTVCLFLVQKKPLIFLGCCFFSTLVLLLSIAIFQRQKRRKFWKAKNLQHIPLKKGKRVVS
Experiment: cell-based or functional assay

Binder | EC50 [nM] | Emax [%]
B1 | 0.04 | 1090
B2 | 0.04 | 1220
B3 | 0.03 | 1040
B4 | 208 | 647
B5 | 4.59 | 443
B6 | 0.37 | 806
B7 | 0.3 | 698
B8 | 1.29 | 699
B9 | 4.11 | 421
B10 | 0.45 | 730
B11 | > 100 | 
B12 | 0.3 | 817
B13 | 0.17 | 968
B14 | > 100 | 
B15 | > 100 | 
B16 | > 100 | 
B17 | > 100 | 
B18 | > 100 | 
B19 | > 100 | 
B20 | > 100 | 
B21 | > 100 | 
B22 | > 100 | 
B23 | > 100 | 

Binder | EC50 [nM] | Emax [%]
B24 | > 100 | 
B25 | > 100 | 
B26 | > 100 | 
B27 | > 100 | 
B28 | > 100 | 171
B29 | > 100 | 
B30 | > 100 | 
B31 | > 100 | 
B32 | > 100 | 
B33 | > 100 | 
B34 | > 100 | 
B35 | > 100 | 
B36 | > 100 | 
B37 | > 100 | 
B38 | > 100 | 
B39 | > 100 | 
B40 | > 100 | 
B41 | > 100 | 
B42 | > 100 | 
B43 | > 100 | 
B44 | > 100 | 
B45 | > 100 | 
